Experimental data from patent publication US20240398899A1 (priority 2021, published 2024).

Assays:
SH-SY5Y neuronal cells [1] = experiment: Mitochondrial membrane potential against MPP+ iodide damage, JC-1 assay; format: cell-based, human; conditions: MPP+ iodide 1 mM; for Mitochondrial membrane potential: red/green fluorescence ratio
Procedure: The plated cells were incubated overnight in 5% CO2 incubator at 37° C. After 24 h, cells were treated with concentrations of recombinant lectin protein having SEQ ID NO: 1 ranging from 1 μg/ml-50 μg/ml for 24 h. After 24 h of treatment, cells were exposed to damage (MPP+ iodide 1 mM) for 24 h. […] Untreated cells were included as control. Cells treated with Deprenyl served as positive control. After MPP+ iodide exposure, the protective effect of recombinant lectin protein having SEQ ID NO: 1 on mitochondrial membrane potential was assessed by JC-1 assay as follows; after incubation, the supernatants were discarded and 100 μl of JC1-dye solution (prepared by diluting 1 mM DMSO stock in to 10 μM in 1×PBS) was added to each well. The cells were then incubated with the dye in CO2 incubator at 37° C. for 15 min. After 15 min of incubation, the supernatant was removed, and the cells were washed twice with 1×PBS (phosphate buffer saline). 100 μl of 1×PBS was finally added to each well. Red fluorescence (excitation 550 nm, emission 600 nm) and green fluorescence (excitation 485 nm, emission 535 nm) were measured using Biotek Synergy HT plate reader. The mitochondrial membrane potential (Δψm) was calculated as the ratio of intensity of red fluorescence to intensity of green fluorescence described as follows: • Δψm=Intensity of red fluorescence/Intensity of green fluorescence • The percentage increase/restoration in Mitochondrial Membrane Potential against MPP+ iodide damage was calculated as:
[formula] • Where X=Δψm corresponding to SEQ ID NO: 1+ MPP+ iodide treated cells • R=Δψm corresponding to control cells (MPP+ iodide damage alone)

[2] = system: Cerebral Cortex and Hippocampus; experiment: Brain histopathology (H&E), scopolamine induced dementia; format: in vivo, Mus musculus (Swiss Albino)
Procedure: Mouse brains were collected after humane sacrifice and fixed in 10% neutral buffered formalin. Then, the brain tissue was trimmed, processed and embedded in paraffin. 5 Micron sections were prepared in slide as a specimen for hematoxylin-eosin (H&E) staining. The hippocampal lesions were assessed microscopically at 100× magnification.
Detailed histological investigation was performed H&E stained brain tissues. Scoring was given according to the neuronal damage. […] The grading criteria for Histopathology score was: Normal or no injury—0; Rare neuronal injury (<5 clusters)—1; Occasional neuronal injury (5-15 clusters)—2; Frequent neuronal injury (>15 clusters)—3; Diffused neuronal injury-4.

SH-SY5Y neuronal cells [3] = experiment: Sub (G0/G1) cell population by PI cell cycle assay against MPP+ iodide damage; format: cell-based, human; conditions: MPP + Iodide (2 mM); for % Decrease in Apoptotic cells (wrt MPP + iodide): SubG0/G1
Procedure: After incubation as in Example 2a and 2b, cells were harvested by trypsinization and processed for Cell cycle assay as follows: Cell cycle reagent contains PI stain, which stains DNA of cells in different phases of cell cycle; Sub (G0/G1), G1, S, G2 and M. Cells in Sub (G0/G1) phase correspond to apoptotic cells.
Cells were gently harvested into pre-labelled centrifuge tubes and centrifuged at 450 g for 5 min, RT (low brake). The supernatants were removed carefully and discarded. 1 ml of 1×PBS was added to the pellet and resuspended gently to make homogenous suspension. Cells were centrifuged at 450 g for 5 min, RT (low brake). The supernatant was carefully removed leaving behind approximately 100 μl of PBS. Cells were resuspended gently yet thoroughly in residual PBS. The cells were fixed by adding Ice-cold 70% ethanol (100 μl) added dropwise into cells in each tube while vortexing at low speed Cells were stored at 4° C. for 24 h prior to staining.
Ethanol fixed cells were centrifuged at 450 g for 5 min, RT (low brake) the supernatant was carefully removed (not to touch the pellet) and discarded. 1 ml of 1×PBS was added into pellet and resuspended gently. Cells were incubated for 1 minute at RT. Cells were centrifuged at 450 g for 5 min, RT (low brake). (washing step) The supernatant was removed carefully leaving behind approx. 20 μl-50 μl of PBS. 200 μl of Cell Cycle reagent was added into each tube. Cells were resuspended gently and mixed. Cells were incubated for 30 min, RT, Dark. The stained samples were transferred into 96-well plates and acquired on flow cytometer (Guava technologies). Percentage of cells in Sub (G0/G1) phase were determined.
Percent inhibition in apoptotic cells=[(% Sub(G0/G1)cells in MPP+iodide alone) −(% Sub(G0/G1)cells in SEQ ID NO:1+MPP+iodide)/% Sub(G0/G1)cells in MPP+iodide alone]*100

[4] = G4: 0.5 mg/kg i.v. qdx14, score 0 normal to 4 diffused neuronal injury
[5] = G5: 0.25 mg/kg i.v. qdx14, score 0 normal to 4 diffused neuronal injury
[6] = G6: 0.125 mg/kg i.v. qdx14, score 0 normal to 4 diffused neuronal injury

B1: SEQ ID NO: 1: variant of the S. rolfsii lectin amino acid sequence (reported as Rec-2 in WO2010/095143) (protein)
chain: TYKITVRVYQTNPDAFFHPVEKTVWKYANGGTWTITDDQHVLTMGGSGTSGTLRFHADNGESFTATFGVHNYKRWCDIVTNLAADETGMVINQQYYSQKNREEARERQLSNYQVKNAKGRNFQIVYTEAEGNDLHANLIIG
Question: For B1, which “% Increase in Mitochondrial potential (w.r.t. control)” value (“% Increase in Mitochondrial potential” below) (SH-SY5Y neuronal cells [1]; 1 μg/mL) is on record?
Answer: 22.7%

Question: And the Mitochondrial membrane potential (SH-SY5Y neuronal cells [1]; 1 μg/mL)?
Answer: 2.3

Question: And the “% Increase in Mitochondrial potential” value (SH-SY5Y neuronal cells [1]; 5 μg/mL)?
Answer: 86.6%

Question: What about the Mitochondrial membrane potential (SH-SY5Y neuronal cells [1]; 5 μg/mL) of the same molecule?
Answer: 3.4

Question: And the “% Increase in Mitochondrial potential” value (SH-SY5Y neuronal cells [1]; 10 μg/mL)?
Answer: 115.9%

Question: And the Mitochondrial membrane potential (SH-SY5Y neuronal cells [1]; 10 μg/mL)?
Answer: 4

Question: And the “% Increase in Mitochondrial potential” value (SH-SY5Y neuronal cells [1]; 25 μg/mL)?
Answer: 84.7%

Question: And the Mitochondrial membrane potential (SH-SY5Y neuronal cells [1]; 25 μg/mL)?
Answer: 3.4

Question: And the “% Increase in Mitochondrial potential” value (SH-SY5Y neuronal cells [1]; 50 μg/mL)?
Answer: 77.5%

Question: And the Mitochondrial membrane potential (SH-SY5Y neuronal cells [1]; 50 μg/mL)?
Answer: 3.3

Question: What about the “Histopathology (Mean score) Cerebral Cortex Cortex” value [2, 4] of the same molecule?
Answer: 0

Question: What about the “Histopathology (Mean score) Cerebral Cortex Meninges” value [2, 4] of the same molecule?
Answer: 0

Question: What about the “Histopathology (Mean score) Hippocampus CA1” value [2, 4] of the same molecule?
Answer: 0

Question: What about the “Histopathology (Mean score) Hippocampus CA3” value [2, 4] of the same molecule?
Answer: 0.67

Question: And the “Histopathology (Mean score) Hippocampus DG” value [2, 4]?
Answer: 0

Question: And the “Histopathology (Mean score) Cerebral Cortex Cortex” value [2, 5]?
Answer: 0

Question: And the “Histopathology (Mean score) Cerebral Cortex Meninges” value [2, 5]?
Answer: 0

Question: What about the “Histopathology (Mean score) Hippocampus CA1” value [2, 5] of the same molecule?
Answer: 0

Question: And the “Histopathology (Mean score) Hippocampus CA3” value [2, 5]?
Answer: 0.6

Question: What about the “Histopathology (Mean score) Hippocampus DG” value [2, 5] of the same molecule?
Answer: 0

Question: What about the “Histopathology (Mean score) Cerebral Cortex Cortex” value [2, 6] of the same molecule?
Answer: 0

Question: And the “Histopathology (Mean score) Cerebral Cortex Meninges” value [2, 6]?
Answer: 0

Question: What about the “Histopathology (Mean score) Hippocampus CA1” value [2, 6] of the same molecule?
Answer: 0

Question: What about the “Histopathology (Mean score) Hippocampus CA3” value [2, 6] of the same molecule?
Answer: 1

Question: And the “Histopathology (Mean score) Hippocampus DG” value [2, 6]?
Answer: 0

Question: What about the “% Apoptotic cells (SubG0/G1)” value (SH-SY5Y neuronal cells [3]; 0.001 μg/mL) of the same molecule?
Answer: 2.7%

Question: And the “% Decrease in Apoptotic cells (wrt MPP + iodide)” value (shortened to “% Decrease in Apoptotic cells”) (SH-SY5Y neuronal cells [3]; 0.001 μg/mL)?
Answer: 18.8%

Question: What about the “% Apoptotic cells (SubG0/G1)” value (SH-SY5Y neuronal cells [3]; 0.01 μg/mL) of the same molecule?
Answer: 2.2%

Question: And the “% Decrease in Apoptotic cells” value (SH-SY5Y neuronal cells [3]; 0.01 μg/mL)?
Answer: 33.5%

Question: And the “% Apoptotic cells (SubG0/G1)” value (SH-SY5Y neuronal cells [3]; 0.05 μg/mL)?
Answer: 2.4%

Question: And the “% Decrease in Apoptotic cells” value (SH-SY5Y neuronal cells [3]; 0.05 μg/mL)?
Answer: 29.9%

Question: And the “% Apoptotic cells (SubG0/G1)” value (SH-SY5Y neuronal cells [3]; 0.1 μg/mL)?
Answer: 2.4%

Question: And the “% Decrease in Apoptotic cells” value (SH-SY5Y neuronal cells [3]; 0.1 μg/mL)?
Answer: 27.7%

Question: What about the “% Apoptotic cells (SubG0/G1)” value (SH-SY5Y neuronal cells [3]; 1 μg/mL) of the same molecule?
Answer: 2.2%

Question: And the “% Decrease in Apoptotic cells” value (SH-SY5Y neuronal cells [3]; 1 μg/mL)?
Answer: 35%
